This note sets out measurements from publication PMC4614383, “Structural insights into the cooperative remodeling of membranes by amphiphysin/BIN1” (Scientific Reports, 2015).

This series concerns the molecule itself. The series is described as follows: cryo-EM 2D class averages and power spectra; 2D classification (Relion) of segments of tubes remodeled by N-BAR, N-BAR-deltaH0 or FL; liposomes 2POPG:1POPE; periodic spacings read from the power spectra; BAR dimers to a lattice on the membrane.

B1: full length Drosophila amphiphysin/BIN1 (FL, residues 1-602) (natural protein, UniProt Q7KLE5 1-602, looked up)
chain: MTENKGIMLAKSVQKHAGRAKEKILQNLGKVDRTADEIFDDHLNNFNRQQASANRLQKEFNNYIRCVRAAQAASKTLMDSVCEIYEPQWSGYDALQAQTGASESLWADFAHKLGDQVLIPLNTYTGQFPEMKKKVEKRNRKLIDYDGQRHSFQNLQANANKRKDDVKLTKGREQLEEARRTYEILNTELHDELPALYDSRILFLVTNLQTLFATEQVFHNETAKIYSELEAIVDKLATESQRGSNTLRKQTSNPIKTSSPVQSPVNKLNNANINSNYQNQITTNGGSSLANSPTSTSSSLQEPRFDSVSSTPEPRPESPAAALVSATPSSPVENGVTTKSLERPELSGLNASAKATTTTQTSPTEDKAVVSEAVKPSETEGAAVAASVTPAPPATPAQINGNNNEPSIVKEGGKQPKELPSTTSNAEAAAEAAANNGNSIEEHKQKKLGNDTTVTATETVTVTQHSVTSTDTDNIVTISDTNTDTDTKTSTGTSQKGRPVPVVNRHSVNNLNKNPFEDDDERIYEVPADANTADLPPGVLYRVKATYGYAKEDVDELSFEIGDLIRVIEYDDPEDQEEGWLMGQKEGTNEKGLFPANFTRPI
notes: amphiphysin/BIN1, Drosophila, full length, residues 1-602; Cloned either with a 3C-cleavable hexahistidine tag or a SenP2-cleavable sumo-hexahistidine tag; source: E. coli BL21 gold, purified (His-Trap, anion exchange, SEC)
Regarding B1, the binding result is on record as “binds”.
